The target of data set [1] is recombinant Synechocystis 6803 aconitase (AcnB), His-tagged (Synechocystis sp. PCC 6803) (UniProt P74582).
Substrate in the data set “purified protein”: O=C(O)/C=C(/CC(=O)O)C(=O)O
The data set can be described thus: purified protein. Type of data set: biochemical, Synechocystis sp. PCC 6803. The settings on record: 10 mM DTT (reducing), no AcnSP, 50 mM Tris-malate pH 7.5, 30°C, 0.3 mM NADP+, 2 mM Na2EDTA, 10 mM MnCl2.

Regarding “synthetic AcnSP peptide (aconitase small protein)”, in data set [1], the Kcat of aconitase with 2 nmol AcnSP added to 2 nmol AcnB, oxidizing conditions (−DTT); control without AcnSP 3.46 turned out to be 3.15 s^–1 and the Kcat of aconitase with 2 nmol AcnSP added to 2 nmol AcnB, reducing conditions (+10 mM DTT); control without AcnSP 14.92 was 13.8 s^–1.

B1: recombinant AcnB (aconitase B, Slr0665) (Synechocystis sp. PCC 6803 substr. Kazusa) (protein)
chain: MLQAYRRHVADRQKLGIPPLPLNAQQTTELCELLKNPPEAEKEELMMLLRDRVPPGVDEAAYVKAGFLTAIAKGEVTCPLISGQGAVDLLGTMIGGYNVQSLIELLKSKDTNIASAAATALSKTLLVFDAFNDVLHLSDTNGYAKQVIDAWAEGAWFINKPEVPERITVTVFKVPGETNTDDLSPAPHATTRPDIPLHALAMLEAKMPEGLGTIAELKQKGHPVAYVGDVVGTGSSRKSAINSVLWHIGTDIPFVPNKRAGGYILGGKIAPIFFNTAEDSGALPIECDVNQLNTGDVITIYPREGKITNKAGETITTFQLKPETILDEVRAGGRIPLLIGRALTDKTREALGLSPSPLFVRPTAPADTGKGFTLAQKMVGKACGVQGIRPGTSCEPIMTTVGSQDTTGPMTRDELKELACLGFNADLTLQTFCHTAAYPKPVDIKTHKDLPDFFSTRGGVALRPGDGIIHSWLNRMLLPDTVGTGGDSHTRFPLGISFPAGSGLVAFAAALGVMPLDMPESVLVKFTGELQPGVTLRDIVNAIPWVAMQQGKLTVGKGDKVNVFNGRIMEMEGLPDLKVEQAFELTDATAERSCSGSTIKLSEETVAEYLRSNVVLMKNMIARGYQDARTLLRRIAKMEEWLANPSLMSGDADAEYADVIEVNLDEIKEPIVAAPNDPDNVKLMSECAGDVIHEVFIGSCMTNIGHYRAAAKILEGAGTVKGRLWICPPTRMDEQQLREEGIYGIFAAAGARTEMPGCSLCMGNQARVEDGVTVFSTSTRNFNNRMGKGAQVYLGSAELAAVCALLGKIPTVEEYLAIVSEKVAPFEGELYRYLNFNEIDNFEDFGRVIPLDQMPKIEDILGMPVGAK
notes: full-length (868 aa), His-tagged from pET28a(+) (NdeI/SalI), E. coli BL21 (DE3), Ni-NTA; medium supplemented with Fe-citrate for iron-sulfur centers
Take B1: in “purified protein”, the Km amounted to 371 ± 20 µM, the Vmax turned out to be 9.04 µmol/min/mg and the kcat was 14.9 s⁻¹.

For the origin of these results see PMC7336809, “AcnSP – A Novel Small Protein Regulator of Aconitase Activity in the Cyanobacterium Synechocystis sp. PCC 6803” (Frontiers in Microbiology, 2020).
